The record followed here is publication doi:10.1101/521369 (bioRxiv, 2019).

This test concerns the target T1, Alexa488-PLCβ1 (purified PLCβ1a) (UniProt P10687 1-1216, Alexa488 on the N-terminus).
T1 sequence: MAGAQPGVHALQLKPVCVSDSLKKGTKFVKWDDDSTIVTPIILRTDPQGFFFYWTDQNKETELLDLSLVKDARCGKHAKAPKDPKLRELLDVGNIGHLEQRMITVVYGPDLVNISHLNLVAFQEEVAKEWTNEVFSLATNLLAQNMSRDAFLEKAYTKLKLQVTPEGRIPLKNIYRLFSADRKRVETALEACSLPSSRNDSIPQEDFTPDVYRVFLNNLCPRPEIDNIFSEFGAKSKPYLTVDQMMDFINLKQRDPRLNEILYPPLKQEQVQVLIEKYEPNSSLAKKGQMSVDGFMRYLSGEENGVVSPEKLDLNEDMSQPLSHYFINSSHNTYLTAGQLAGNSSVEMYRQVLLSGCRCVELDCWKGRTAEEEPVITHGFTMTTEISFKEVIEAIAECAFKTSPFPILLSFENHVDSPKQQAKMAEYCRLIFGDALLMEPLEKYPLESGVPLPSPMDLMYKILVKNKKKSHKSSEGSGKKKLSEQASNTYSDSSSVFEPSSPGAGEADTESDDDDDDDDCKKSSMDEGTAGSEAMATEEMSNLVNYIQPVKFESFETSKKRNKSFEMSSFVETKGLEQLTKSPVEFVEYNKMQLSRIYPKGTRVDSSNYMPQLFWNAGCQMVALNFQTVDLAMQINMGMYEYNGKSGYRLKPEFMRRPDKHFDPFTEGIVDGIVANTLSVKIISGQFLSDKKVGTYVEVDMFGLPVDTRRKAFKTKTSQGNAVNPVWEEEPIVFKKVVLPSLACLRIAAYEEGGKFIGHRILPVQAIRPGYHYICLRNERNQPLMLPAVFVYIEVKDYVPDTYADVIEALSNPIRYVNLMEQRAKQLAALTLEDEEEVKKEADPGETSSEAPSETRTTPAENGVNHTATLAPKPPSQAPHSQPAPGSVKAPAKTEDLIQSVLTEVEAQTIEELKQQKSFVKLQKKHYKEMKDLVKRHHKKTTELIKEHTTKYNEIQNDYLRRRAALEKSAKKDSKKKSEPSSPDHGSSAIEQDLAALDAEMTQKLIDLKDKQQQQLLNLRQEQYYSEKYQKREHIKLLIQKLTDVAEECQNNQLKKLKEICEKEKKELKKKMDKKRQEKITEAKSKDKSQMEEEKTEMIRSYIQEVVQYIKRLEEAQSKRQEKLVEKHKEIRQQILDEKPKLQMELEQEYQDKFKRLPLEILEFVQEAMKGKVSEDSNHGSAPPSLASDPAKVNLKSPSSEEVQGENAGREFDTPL
Kind of test: other fluorescence titration.

B1: Alexa594-eIF5A (purified) (natural protein)
chain: not shown
modifications: Alexa594 on the N-terminus
For orientation: Kd means a measure of binding affinity in units of concentration. A high value points to weaker binding. For the molecule B1, the Kd turned out to be 27 ± 5 nM.
